This is an account of results in patent US20040265235A1, “Magnetic resonance contrast-enhancing agents and method for detecting and imaging artherosclerotic plaque” (priority 2003, published 2004).

The series is described as follows: MR T1 relaxivity of contrast agents. Format: physicochemical. Particulars: globular versus elongated conformation. How it is done:
A low relaxivity or long relaxation time is associated with an elongated molecule such as a highly substituted Gd-DTPA-PLL, in which the Gd can rotate rapidly, having a relaxivity of about 8 sec^−1 mM^−1. When the relaxivity of a peptide contrast agent was high, the uptake coefficient of such an agent was invariably low, evidently due to the absence of a reptation movement of the contrast agent molecule, resulting in the exclusion of the contrast agent from narrow passages. Thus, it is important to establish that the peptides being compared for optimum length are all of the same conformation. Relaxivity values of the Gd-PLL for various lengths were tested to be between 7.5 and 10 for average chain length of 92, 219, 455, 633, and 1163 residues, in a 2 Tesla magnet (2 T) at 80 MHz and 23° C.

For albumin, the relaxivity result is given as “about 15 sec^−1 mM^−1”.
